For assay [1], the target named is PCSK9 antigen (SEQ ID NO: 53), human PCSK9 (human) (UniProt Q8NBP7). The assay is described as follows: flow cytometry, PCSK9 left bound to CHO-LDLR cells (anti-His-FITC), control IgG 1 nM. A general note: In flow cytometry, cells or beads pass a laser one at a time.
The target is the same in assay [2]. In words: flow cytometry, PCSK9 left bound to CHO-LDLR cells (anti-His-FITC), control IgG 10 nM.
Assay [3] has the same target. In words: flow cytometry, PCSK9 left bound to CHO-LDLR cells (anti-His-FITC), control IgG 0.1 nM.
The target is the same in assay [4]. The assay is described as follows: flow cytometry, PCSK9 left bound to CHO-LDLR cells (anti-His-FITC), control IgG 100 nM.
Assay [5] shares this target. In words: flow cytometry, PCSK9 left bound to CHO-LDLR cells (anti-His-FITC), control IgG 1000 nM.

Consider IgG (antibody), for which the Fluorescence signal value in assay [1] stood at 6730; in assay [2] it was 6960; in assay [3], 7000; in assay [4], 7520; in assay [5], 8920.

The values are drawn from patent US20220062416A1.
